{"source": "patent US20040006022A1", "about": "(Harvard, published 2004)", "key": {"[1]": {"biological_target": "recombinant water-soluble 'empty' HLA-DR4 (DRB1*0401) (human)"}, "[2]": {"biological_target": "recombinant water-soluble 'empty' HLA-DR1 (DRB1*0101) (human)", "assay": "competitive binding ELISA on recombinant HLA-DR1; competitor biotinylated YEAK"}, "[3]": {"biological_target": "HLA-DR1 purified from human homozygous EBV-transformed B cell lines (human)", "assay": "size-exclusion column of YEAK incubated with an excess of HLA-DR purified from B cell lines"}, "[4]": {"biological_target": "HLA-DR2 purified from human homozygous EBV-transformed B cell lines (human)", "assay": "size-exclusion column of YEAK incubated with an excess of HLA-DR purified from B cell lines"}, "[5]": {"biological_target": "HLA-DR4 purified from human homozygous EBV-transformed B cell lines (human)", "assay": "size-exclusion column of YEAK incubated with an excess of HLA-DR purified from B cell lines"}, "[6]": {"biological_target": "recombinant water-soluble 'empty' HLA-DR1 (DRB1*0101) (human)", "assay": "incubation 1:1 with water-soluble HLA-DR, Centricon ultrafiltration, acid extraction, amino acid analysis"}, "[7]": {"biological_target": "recombinant water-soluble 'empty' HLA-DR2 (DRB1*1501) (human)", "assay": "incubation 1:1 with water-soluble HLA-DR, Centricon ultrafiltration, acid extraction, amino acid analysis"}, "[8]": {"biological_target": "recombinant water-soluble 'empty' HLA-DR4 (DRB1*0401) (human)", "assay": "incubation 1:1 with water-soluble HLA-DR, Centricon ultrafiltration, acid extraction, amino acid analysis"}, "[9]": {"biological_target": "HLA-DR1 on L fibroblasts transfected with HLA-DR1 (L57.23) (human)", "assay": "cell-based or functional assay"}, "[10]": {"biological_target": "HLA-DR4 on L fibroblasts transfected with HLA-DR4 (human)", "assay": "cell-based or functional assay"}, "[11]": {"biological_target": "T1, recombinant water-soluble 'empty' HLA-DR4 (DRB1*0401) (human)", "T1 construct": "extracellular domain; extracellular domain is inferred from 'water-soluble'", "assay": "competitive binding ELISA on recombinant HLA-DR4; competitor biotinylated YEAK"}, "[12]": {"biological_target": "T2, recombinant water-soluble 'empty' HLA-DR1 (DRB1*0101) (human)", "T2 construct": "extracellular domain", "assay": "competitive binding ELISA; competitors biotinylated Multipin peptides"}, "[13]": {"biological_target": "T1, recombinant water-soluble 'empty' …", "assay": "competitive binding ELISA; competitors biotinylated Multipin peptides"}}, "note": "Like-named read-outs stand apart in the source and are kept apart here.", "data": [{"molecule": "heteropolymer YEAK (Copolymer 1), poly(Y,E,A,K)", "values": [{"measurement": "affinity determined by competition", "setting": "[1]", "value": 2.5, "unit": "µM"}, {"measurement": "affinity determined by competition", "setting": "[2]", "value": 8, "unit": "µM"}, {"measurement": "percent of YEAK at the lower molecular weight position of control (unbound) YEAK", "setting": "[3]", "value": "< 10", "unit": "%"}, {"measurement": "percent of YEAK at the lower molecular weight position of control (unbound) YEAK", "setting": "[4]", "value": "< 10", "unit": "%"}, {"measurement": "percent of YEAK at the lower molecular weight position of control (unbound) YEAK", "setting": "[5]", "value": "< 10", "unit": "%"}, {"measurement": "percent of added YEAK in the bound fraction", "setting": "[6]", "value": "> 95", "unit": "%"}, {"measurement": "percent of added YEAK in the bound fraction", "setting": "[7]", "value": 80, "unit": "%"}, {"measurement": "percent of added YEAK in the bound fraction", "setting": "[8]", "value": "> 95", "unit": "%"}]}, {"molecule": "AAEYKAAAAAAAAAA", "note": "[synthetic 15-mer peptide SEQ ID NO: 26, AAEYKAAAAAAAAAA]", "values": [{"measurement": "inhibition of the response of 19.3 T cells (IL-2 secretion)", "setting": "[9]", "value": "~100", "unit": "%"}]}, {"molecule": "AKEYAAAAAAAAAAA", "note": "[synthetic 15-mer peptide SEQ ID NO: 20, AKEYAAAAAAAAAAA]", "values": [{"measurement": "inhibition of the response of 19.3 T cells (IL-2 secretion)", "setting": "[9]", "value": "~100", "unit": "%"}]}, {"molecule": "AKKYAAAAAAKAAAA", "note": "[synthetic 15-mer peptide SEQ ID NO: 8, AKKYAAAAAAKAAAA]", "values": [{"measurement": "inhibition of the DR4 D3 T cell clone (IL-2 secretion)", "setting": "[10]", "value": "> 80", "unit": "%"}]}, {"molecule": "AEAYKAAAAAAAAAA", "note": "[synthetic 15-mer peptide SEQ ID NO: 23, AEAYKAAAAAAAAAA]", "values": [{"measurement": "inhibition of the DR4 3838 T cell clone (IL-2 secretion)", "setting": "[10]", "value": "> 80", "unit": "%"}]}, {"molecule": "AEKAYAAAAAAAAAA", "note": "[synthetic 15-mer peptide SEQ ID NO: 33, AEKAYAAAAAAAAAA]", "values": [{"measurement": "inhibition of the DR4 3838 T cell clone (IL-2 secretion)", "setting": "[10]", "value": "> 80", "unit": "%"}]}, {"molecule": "AKKYAEAAAAAAAAA", "note": "[synthetic 15-mer peptide SEQ ID NO: 22, AKKYAEAAAAAAAAA]", "values": [{"measurement": "inhibition of the DR4 3838 T cell clone (IL-2 secretion)", "setting": "[10]", "value": "> 80", "unit": "%"}]}, {"molecule": "EKAYAAAAAAAAAAA", "note": "[synthetic 15-mer peptide SEQ ID NO: 27, EKAYAAAAAAAAAAA]", "values": [{"measurement": "inhibition of the response of 19.3 T cells (IL-2 secretion)", "setting": "[9]", "value": "~100", "unit": "%"}, {"measurement": "inhibition of the DR4 3838 T cell clone (IL-2 secretion)", "setting": "[10]", "value": "> 80", "unit": "%"}, {"measurement": "inhibition of the DR4 D3 T cell clone (IL-2 secretion)", "setting": "[10]", "value": "> 80", "unit": "%"}]}, {"molecule": "AAKYAEAAAAKAAAA (also called peptide 15)", "note": "[synthetic 15-mer peptide SEQ ID NO: 15, AAKYAEAAAAKAAAA]", "values": [{"measurement": "inhibition of the response of 19.3 T cells (IL-2 secretion)", "setting": "[9]", "value": "~100", "unit": "%"}, {"measurement": "inhibition of the DR4 D3 T cell clone (IL-2 secretion)", "setting": "[10]", "value": "> 80", "unit": "%"}, {"measurement": "affinity determined by competition", "setting": "[11]", "value": "< 1", "unit": "µM"}]}, {"molecule": "AAKYEAAAAAAAAAA", "note": "[synthetic 15-mer peptide SEQ ID NO: 28, AAKYEAAAAAAAAAA]", "values": [{"measurement": "inhibition of the DR4 3838 T cell clone (IL-2 secretion)", "setting": "[10]", "value": "> 80", "unit": "%"}]}, {"molecule": "AEKYAAAAAAKAAAA", "note": "[synthetic 15-mer peptide SEQ ID NO: 6, AEKYAAAAAAKAAAA]", "values": [{"measurement": "inhibition of the DR4 3838 T cell clone (IL-2 secretion)", "setting": "[10]", "value": "> 80", "unit": "%"}]}, {"molecule": "AEEYAAAAAAKAAAA", "note": "[synthetic 15-mer peptide SEQ ID NO: 11, AEEYAAAAAAKAAAA]", "values": [{"measurement": "inhibition of the DR4 3838 T cell clone (IL-2 secretion)", "setting": "[10]", "value": "> 80", "unit": "%"}]}, {"molecule": "EAKYAAAAAAKAAAA", "note": "[synthetic 15-mer peptide SEQ ID NO: 18, EAKYAAAAAAKAAAA]", "values": [{"measurement": "inhibition of the DR4 D3 T cell clone (IL-2 secretion)", "setting": "[10]", "value": "> 80", "unit": "%"}, {"measurement": "affinity determined by competition", "setting": "[11]", "value": 3, "unit": "µM"}]}, {"molecule": "EKKYAAAAAAKAAAA", "note": "[synthetic 15-mer peptide SEQ ID NO: 17, EKKYAAAAAAKAAAA]", "values": [{"measurement": "inhibition of the DR4 3838 T cell clone (IL-2 secretion)", "setting": "[10]", "value": "> 80", "unit": "%"}]}, {"molecule": "EAAYAAAAAAKAAAA", "note": "[synthetic 15-mer peptide SEQ ID NO: 16, EAAYAAAAAAKAAAA]", "values": [{"measurement": "inhibition of the DR4 3838 T cell clone (IL-2 secretion)", "setting": "[10]", "value": "> 80", "unit": "%"}, {"measurement": "inhibition of the DR4 D3 T cell clone (IL-2 secretion)", "setting": "[10]", "value": "> 80", "unit": "%"}]}, {"molecule": "AGFKGEQGPKGEP", "note": "[collagen II (CII) peptide 261-273, AGFKGEQGPKGEP]", "values": [{"measurement": "binding result", "setting": "[12]", "value": "binds"}, {"measurement": "binding result", "setting": "[13]", "value": "binds"}]}]}
